Data reported in FireProtDB (doi:10.1002/pro.342).

Settings: Escherichia coli, pH 6.3, CD, Phosphate 50 mM, NaCl 300 mM, whole UniProt chain shown

B1: Regulatory protein rop wild type, P03051 (protein)
chain: MTKQEKTALNMARFIRSQTLTLLEKLNELDADEQADICESLHDHADELYRSCLARFGDDGENL
Tm (Thermal): 70 °C | heat capacity change of unfolding (Thermal): 1.1 kcal/mol/K | unfolding enthalpy (van 't Hoff) (Thermal): 65 kcal/mol | denaturant m value (Urea): 2.1 kcal/mol/M | denaturant midpoint (higher = more stable) (Urea): 4.6 M | unfolding free energy (Urea): 16 kcal/mol
